B1: OR4K15 (parent)
chain: GUUAACGGUCAUAGGCCAUGGAAACUAGGAGCACCAUUUCGCUGCCAGUGAAGAAAUGAACAAAGAAAAUCUGGGCCAGGCAGGCAUCAAAAGAAAUAGUCUUGCGCUCAACCAGAAAGUCUGUAAUCAUUUUAAGGGUA

Variants of: B1
Experiment: self-cleavage, relative activity (ratio to wild type); higher = more cleavage; in vitro, sequencing; the parent is a self-cleaving ribozyme

Variant	self-cleavage
GUUGACGGUCAUAGGCCAUGGAAACUAGGAGCACCAUUACGCUGCCAGUGAAGAAAUGAACAAAGAAAAUCUGGGCCAGGCAGGCAUCAAAAGAAAUAGUCUUGCGCUCAACCAGAAAGUCUGUAAUCAUUUUAAGGGUA [A4G U39A]	1.27
GUUAACGGUCAUAGGUCAUGGAAACUAGGGGCACCAUUUCGCUGCCAGUGAAGAAAUGAACAAAGAAAAUCUGGGCCAGGCAGGCAUCAAAAGAAAUAGUCUUGCGCUCAACCAGAAAGUCUGUAAUCAUUUUAAGGGUA [C16U A30G]	1.27
GUUAACGGUCAGAGGCCAUGGAAGCUAGGAGCACCAUUUCGCUGCCAGUGAAGAAAUGAACAAAGAAAAUCUGGGCCAGGCAGGCAUCAAAAGAAAUAGUCUUGCGCUCAACCAGAAAGUCUGUAAUCAUUUUAAGGGUA [U12G A24G]	1.1
GUUAACGGUCAUAGGCCAUGGAUACUAGGAGCGCCAUUUCGCUGCCAGUGAAGAAAUGAACAAAGAAAAUCUGGGCCAGGCAGGCAUCAAAAGAAAUAGUCUUGCGCUCAACCAGAAAGUCUGUAAUCAUUUUAAGGGUA [A23U A33G]	1.06
GUUAACGGUCAUAGGCCAUGGAAACUAGGAGCACCAUUUCGCUGCUAGUGAAGAAAUGAACAAAGAAAAUCUGGGCCAGGCAGGCAUCAAAAGAAAUAGUCUUGCGCUCAACCAGAAAGUCUGUAAUCAUCUUAAGGGUA [C46U U131C]	2.02
GUUAACGGUCAUAGGCCAUGGCAACUAGGAGCACCAUUUCGCUGCCAGUGAAGAAAUGAACAAAGAAAAUCUGGGCCAGGCAGGCAUCAAAAGAAAUAGUCUUGCGCACAACCAGAAAGUCUGUAAUCAUUUUAAGGGUA [A22C U108A]	0.02
GUUAACGGUCAUAGGCCAUGGAAACUAGGAGCACCAUUUCGCUGCCAGUGGAGAAAUGAACAAAGAAAAUCUGGGCCAGGCAGGCAUCAAAAGAAAUAGUCUGGCGCUCAACCAGAAAGUCUGUAAUCAUUUUAAGGGUA [A51G U103G]	0.05
GUUAACGGUUAUAGGCCAUGGAAACUAGGAGCACCAUUUCGCUGCCAGUGAAGAAAUGAACAAAGAAGAUCUGGGCCAGGCAGGCAUCAAAAGAAAUAGUCUUGCGCUCAACCAGAAAGUCUGUAAUCAUUUUAAGGGUA [C10U A68G]	0.34
GUAAACGGUCAUAGGCCAUGGAAACUAGGAGCACCAUUUCGCUGCCUGUGAAGAAAUGAACAAAGAAAAUCUGGGCCAGGCAGGCAUCAAAAGAAAUAGUCUUGCGCUCAACCAGAAAGUCUGUAAUCAUUUUAAGGGUA [U3A A47U]	1.18
GUUAACGGUCAUAGGCCAUGGAAACUAGGAGCACCAUUUCGCCGCCAGUGAAGAAAUGAACAAAGAAAAUCUGGGCCAGGCAGGCAUCAAAAGAAAUAGUCUUGCGCUCAACCAGAUAGUCUGUAAUCAUUUUAAGGGUA [U43C A117U]	1.17
GUUAACGGUCAUAGGCCAUGAAAACUAGGAGCACCAUUUCGCUGCCAGUGAGGAAAUGAACAAAGAAAAUCUGGGCCAGGCAGGCAUCAAAAGAAAUAGUCUUGCGCUCAACCAGAAAGUCUGUAAUCAUUUUAAGGGUA [G21A A52G]	1.57
GUUAACGGUCAUAGGCCAUGGAAACUAGGAGCACCAUUUCGCUGCCAGUGAAGAAAUGAACAAAGAAAAUCUGGGCCAGGCAGGCACCAAAAGAAAUAGUCUUGCGCUCAACCAGAACGUCUGUAAUCAUUUUAAGGGUA [U87C A118C]	0.4
GUUAACGGUCAUAGGCCAUGGAAACUAGGAGCACCAUUUCGCUGCCAGUGAAGAAAUGAACAAAGAAAAUCUGGGCCAGGCAGGCAUUAAAAGAAAUAGUCUUGCGCUCAACCAGAAAGUCUGUAAUCAUUUUAAGGGUG [C88U A140G]	2.02
AUUAACGGUCAUAGGCCAUGGAAACUAGGAGCACCAUUUCGCUGCCAGUGAAGAAAUGAACAAAGAAAAUCUGGGCCAGGCAGGCAUCAAAAGAAAUAGUCUUGCGCUCAACCAGAAAGUCUGUAAUCAUUUUGAGGGUA [G1A A134G]	1.75
GUUAACGGUCAUAGGCCAUGGAAACUAGGAGCACCAUUUCGCUGCCAGUGAAGGAAUGAACAAAGAAAAUCUGGGCCAGGCAGGCAUCAAAAGAAAUAGUCCUGCGCUCAACCAGAAAGUCUGUAAUCAUUUUAAGGGUA [A54G U102C]	1.41
GUUAACGGUCAUAGGCCAUGGAAACUAGGAGCACCUUUUCGCUGCCAGUGAAGAAGUGAACAAAGAAAAUCUGGGCCAGGCAGGCAUCAAAAGAAAUAGUCUUGCGCUCAACCAGAAAGUCUGUAAUCAUUUUAAGGGUA [A36U A56G]	1.46
GUUAACGGCCAUAGGCCAUGGAAACUAGGAGCUCCAUUUCGCUGCCAGUGAAGAAAUGAACAAAGAAAAUCUGGGCCAGGCAGGCAUCAAAAGAAAUAGUCUUGCGCUCAACCAGAAAGUCUGUAAUCAUUUUAAGGGUA [U9C A33U]	1.73
GUUAACGGUCGUAGGCCAUGGAAACUAGGAGCACCAUUUCGCUGCCAGUGAAGAAAUGAACAAAGAUAAUCUGGGCCAGGCAGGCAUCAAAAGAAAUAGUCUUGCGCUCAACCAGAAAGUCUGUAAUCAUUUUAAGGGUA [A11G A67U]	1.16
GUUAACGGUCAUAGGCCAUGGAAACGAGGAGCACCGUUUCGCUGCCAGUGAAGAAAUGAACAAAGAAAAUCUGGGCCAGGCAGGCAUCAAAAGAAAUAGUCUUGCGCUCAACCAGAAAGUCUGUAAUCAUUUUAAGGGUA [U26G A36G]	1.37
GUUAACGGUCAUUGGCCAUGGAAACUAGGAGCACCAUUUCGCUGCCAGUGAAGAAAUGAACAAAGAAAAUCUGGGCCAGGCAGGCAUCAAAAGAAAUAGUCUUGCGCUCAGCCAGAAAGUCUGUAAUCAUUUUAAGGGUA [A13U A111G]	0.03
GUUAACGGUCAUAGGCCAUGGAAACUAGGAGCACCAUUCCGCUGCCAGUGAAGAAAUGAACAAGGAAAAUCUGGGCCAGGCAGGCAUCAAAAGAAAUAGUCUUGCGCUCAACCAGAAAGUCUGUAAUCAUUUUAAGGGUA [U39C A64G]	1.88

Variant	self-cleavage
GUUAACGGUCAUAGGCCAUGGAAACUAGGAGCACCAUUUCGCUGCCAGUGAAGAGAUGAACAAAGAAAAUCUGGGCCAGGCAGGCAUCAAAAGAAAUAGCCUUGCGCUCAACCAGAAAGUCUGUAAUCAUUUUAAGGGUA [A55G U100C]	1.93
GUUAACGGUCAUAGGCCAUGGAAACUAGGAGCACCAUUUCGCUGCCAGUGAAGAAAUGAACAAAGAAAAUCUGGGUCAGGCAGGCAUCAAAAGAAAUAGUCCUGCGCUCAACCAGAAAGUCUGUAAUCAUUUUAAGGGUA [C76U U102C]	0.1
GUUAACGGUCACAGGCCAUGGAAACUAGGAGCACCAUUUCGCUGCCAGUGAAGAAAUGAACAAAGGAAAUCUGGGCCAGGCAGGCAUCAAAAGAAAUAGUCUUGCGCUCAACCAGAAAGUCUGUAAUCAUUUUAAGGGUA [U12C A66G]	0.97
GUUAACGGUCAUAGGCCAUGGGAACUAGGAGCACCAUUUCGCUGCCAGUGAAGAUAUGAACAAAGAAAAUCUGGGCCAGGCAGGCAUCAAAAGAAAUAGUCUUGCGCUCAACCAGAAAGUCUGUAAUCAUUUUAAGGGUA [A22G A55U]	1.26
GUUAACGGUCAUAGGCCACGGAAACUAGGAGCACCAUUUCGCUGCCAGUGAAGAAAUGAACAAAGAAAAUCUGGGCCAGCCAGGCAUCAAAAGAAAUAGUCUUGCGCUCAACCAGAAAGUCUGUAAUCAUUUUAAGGGUA [U19C G80C]	0.1
GUUAACGGACAUAGGCCAUGGAAACUAGGAGCACCAUUUCGCUGCCAGUGAAGAAAUGAACAAAGAAAAUCUGGGCCAGGCAGGCAUCAAAAGAAAUAGUCUUGCGCUCAACCAGGAAGUCUGUAAUCAUUUUAAGGGUA [U9A A116G]	0.45
GUUAACGGUCAUAGGCCAUGGAAACUAGGAGUACCAUUUCGCUGCCAGUGAGGAAAUGAACAAAGAAAAUCUGGGCCAGGCAGGCAUCAAAAGAAAUAGUCUUGCGCUCAACCAGAAAGUCUGUAAUCAUUUUAAGGGUA [C32U A52G]	1.73
GUUAACGGUCAUAGGCCAUGGAAACUAGGAGCACCAUUUCGCUGCCAGUGAAGAUAUGAACAAAGAAAAUCUGGGCCAGGCAGGCAUCAAAAGAAAUAGUCUUGCGCUCAACCAGAAAGUCUGUAACCAUUUUAAGGGUA [A55U U127C]	0.93
GUUAACGGUCAUAGGCCAUGGAAACUAGGAGCACCAUUUCGCUGCCAGUGAAGACAUGAACAAAGAAAAUCCGGGCCAGGCAGGCAUCAAAAGAAAUAGUCUUGCGCUCAACCAGAAAGUCUGUAAUCAUUUUAAGGGUA [A55C U72C]	0.24
GUUAACGGUCAUAGGCCAUGGAAACUAGGAGCACCAUUUCGCUGCCAGUGAAGAAAUGAACAAAGAAAAUCUGGGCCAGGCAGGCAUCUGAAGAAAUAGUCUUGCGCUCAACCAGAAAGUCUGUAAUCAUUUUAAGGGUA [A89U A90G]	1.48
GUUAACGGUCAUAGGCCAUGGAAACUAGGAGCACCAUUUCGCUGCCAGUGAAGAAAUGAACAAAGGAAAUCUGGGCCAGGCAGGCAUCAAAAGAAAUAGUCUUGCGCUCAACCAGAAAGGCUGUAAUCAUUUUAAGGGUA [A66G U120G]	2.47
GUUAACGGUCAUAGGCCAUGGAAACUAGGAGCUCCAUUUCGCUGCCAGUGAAGAAAUGAACAAAGAAAAUCUGCGCCAGGCAGGCAUCAAAAGAAAUAGUCUUGCGCUCAACCAGAAAGUCUGUAAUCAUUUUAAGGGUA [A33U G74C]	0.05
GUUAACGGUCAUAGGCCAUGGAAACUAGGAGCACCAUUUCGCUGCCAGUGAAGAAAUGAACAAAGACAAUCUGGGCCAGGCAGGCAUCAAAAGAAAUAGUCUUGCGCUCAACCAGAAAGUCUGUAAUCAUCUUAAGGGUA [A67C U131C]	1.86
GUUAACGGUCAUAGGCCAUGGAAACUAGGAGCACCAUUUCGCUGCCAGUGAGGAAAUGAACAAAGAAAAUCUGGGCCAGGCAGGCAUCAAAAGAAAUAGUCUUGCGCUCAACCAGAAAGUCUGUAAUCAUUUUAGGGGUA [A52G A135G]	1.44
GUUAACGGUCAUAGGCCAUGGAAACUAGGAGCACCAUUUCGCUGCCAGUGAAGAAAUGAACAAAGGAAAUCUGGGCAAGGCAGGCAUCAAAAGAAAUAGUCUUGCGCUCAACCAGAAAGUCUGUAAUCAUUUUAAGGGUA [A66G C77A]	0.91
GUUAACGGUCAUAGGCCAUGGAAACUAGGAGCACCAUUUCGCUGCCUGUGAAGAAAUGAACAAAGAAAAUCUGGGCCAGGCAGGCAUCAAAAGAAGUAGUCUUGCGCUCAACCAGAAAGUCUGUAAUCAUUUUAAGGGUA [A47U A96G]	1.28
GUUGACGGUCAUAGGCCAUGGAAACUAGGAGCACCAUUUCGCUGCCAGUGAAGAAAUGAACAAAGAAAAUCUGGGCUAGGCAGGCAUCAAAAGAAAUAGUCUUGCGCUCAACCAGAAAGUCUGUAAUCAUUUUAAGGGUA [A4G C77U]	1.45
GUUAACGGUCAUAGGCCAUGGAAACUAGGAGCACCAUUUCGCUGCCAGUGAAGAAAUGAACAAAGAAAAUCUGGGCCAGGCAGGCAUCAAAAGAAAUAGUCUAGCGCUCAACCAGAAAGUCUGUAAUCAUUUUAGGGGUA [U103A A135G]	0.73
GUUAACGGUCAUAGGCCAUGGAAACUAGGAGCACCAUUUCGCCGUCAGUGAAGAAAUGAACAAAGAAAAUCUGGGCCAGGCAGGCAUCAAAAGAAAUAGUCUUGCGCUCAACCAGAAAGUCUGUAAUCAUUUUAAGGGUA [U43C C45U]	1.6
GUUAACGGUCAUAGGCCAUGGAAACUAGGAGCACCAUUUCGCUGCCAGUGAAGAAAUGAACAAAGAAAAUCUGGGCCAGGCAGGCAUCAUAAGAAAUAGUCUUGCGCUCAACCAGAAAGUCUGUAAUCACUUUAAGGGUA [A90U U130C]	1.3

Reference: the RNAGym collection of RNA variant scans (doi:10.7554/elife.90254)
